Reference: US20220275100A1 (JIANGSU HENGRUI MEDICINE, published 2022)
Numbering of substitutions follows the chain as printed. Names may count otherwise.

B1: hu9E (antibody, human IgG1, kappa)
heavy: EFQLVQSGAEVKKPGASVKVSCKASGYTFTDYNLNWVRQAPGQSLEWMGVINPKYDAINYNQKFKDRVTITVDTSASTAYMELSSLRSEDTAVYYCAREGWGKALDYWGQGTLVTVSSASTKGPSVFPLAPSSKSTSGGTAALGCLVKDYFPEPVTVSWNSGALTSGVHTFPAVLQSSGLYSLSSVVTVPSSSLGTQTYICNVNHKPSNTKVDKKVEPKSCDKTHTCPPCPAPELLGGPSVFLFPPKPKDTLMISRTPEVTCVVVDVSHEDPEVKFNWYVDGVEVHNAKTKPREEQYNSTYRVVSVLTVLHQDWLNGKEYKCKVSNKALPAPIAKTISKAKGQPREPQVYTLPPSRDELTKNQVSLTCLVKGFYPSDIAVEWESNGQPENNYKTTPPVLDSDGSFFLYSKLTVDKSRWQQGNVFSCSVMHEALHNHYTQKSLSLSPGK
light: EIVLTQSPATLSLSPGERATLSCRASQSIYTNLHWYQQKPGQSPRLLIKYASQSISGIPARFSGSGSGTDFTLTISSLEPEDFAVYYCQQSNSWPLTFGGGTKVEIKRTVAAPSVFIFPPSDEQLKSGTASVVCLLNNFYPREAKVQWKVDNALQSGNSQESVTEQDSKDSTYSLSSTLTLSKADYEKHKVYACEVTHQGLSSPVTKSFNRGEC
notes: Humanized, human IgG1-E333A / kappa; also called h009-07E
B2: hu11E (antibody, human IgG1, kappa)
heavy: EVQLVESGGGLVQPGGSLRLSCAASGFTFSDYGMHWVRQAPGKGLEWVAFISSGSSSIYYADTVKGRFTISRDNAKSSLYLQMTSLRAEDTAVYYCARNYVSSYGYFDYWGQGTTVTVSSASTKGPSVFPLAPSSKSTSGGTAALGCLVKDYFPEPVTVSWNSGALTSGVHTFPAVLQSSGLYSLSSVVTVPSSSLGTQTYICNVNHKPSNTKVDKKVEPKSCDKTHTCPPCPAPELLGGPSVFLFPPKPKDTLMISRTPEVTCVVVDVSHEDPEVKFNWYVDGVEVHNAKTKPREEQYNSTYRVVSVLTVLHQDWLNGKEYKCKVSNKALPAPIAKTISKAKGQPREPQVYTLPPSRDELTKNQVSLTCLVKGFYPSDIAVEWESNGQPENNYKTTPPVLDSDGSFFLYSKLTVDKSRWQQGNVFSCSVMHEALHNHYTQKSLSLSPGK
light: DIVMTQSPDSLAVSLGERATINCRASENVDNYGISFMHWYQQKPGQPPKLLIYRASNLESGVPDRFSGSGSGTDFTLTISSLQAEDVAVYYCQQSNKDPLTFGGGTKVEIKRTVAAPSVFIFPPSDEQLKSGTASVVCLLNNFYPREAKVQWKVDNALQSGNSQESVTEQDSKDSTYSLSSTLTLSKADYEKHKVYACEVTHQGLSSPVTKSFNRGEC
notes: Humanized, human IgG1-E333A / kappa; also called h011-01E
B3: hu160E (antibody, human IgG1, kappa)
heavy: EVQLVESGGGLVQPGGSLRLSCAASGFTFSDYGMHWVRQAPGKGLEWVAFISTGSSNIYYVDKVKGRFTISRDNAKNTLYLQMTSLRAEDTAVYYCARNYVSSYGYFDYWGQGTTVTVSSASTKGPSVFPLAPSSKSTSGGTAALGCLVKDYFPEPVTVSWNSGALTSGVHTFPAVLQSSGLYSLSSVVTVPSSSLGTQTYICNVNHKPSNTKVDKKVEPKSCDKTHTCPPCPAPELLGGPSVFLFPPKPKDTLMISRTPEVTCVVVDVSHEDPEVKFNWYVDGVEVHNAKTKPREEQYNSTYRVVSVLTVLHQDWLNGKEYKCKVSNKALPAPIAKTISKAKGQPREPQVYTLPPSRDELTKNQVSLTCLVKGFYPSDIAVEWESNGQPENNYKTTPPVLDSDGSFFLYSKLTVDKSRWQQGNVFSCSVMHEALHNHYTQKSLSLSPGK
light: B2 light with D9A, N28S, S95T
notes: Humanized, human IgG1-E333A / kappa; also called h160-01E
B4: h160-07 (antibody, human IgG1, kappa, V domains shown)
VH: EVQLVESGGGLVQPGGSLRLSCAASGFTFSDYGMHWVRQAPGKGLEWIAFISTGSSNIYYVDKVKGRFTISRDNAKNTLYLQMTSLRAEDTAVYYCARNYVSSYGYFDYWGQGTTVTVSS
VL: DIVLTQSPASLAVSLGERATINCRASESVDNYGISFMHWYQQKPGQPPKLLIYRASNLESGVPARFSGSGSRTDFTLTISSLQAEDVAVYYCQQTNKDPLTFGGGTKVEIKR
B5: h160-08 (antibody, human IgG1, kappa, V domains shown)
VH: B4 VH
VL: B4 VL with N22S, V62I
B6: ch-009 (antibody, human IgG1, V domains shown)
VH: EFQLQQSGPELVKPGASVKISCKASGYSFTDYNLNWVKQSNGKSLEWIGVINPKYDAINYNQKFKDKATLTVDQSSSTAYMQLSSLTSEDSAVYYCAREGWGKALDYWGPGTSVIVSS
VL: DFVLTQSPATLSVTPGDSVSLSCRASQSIYTNLHWYQQKSHESPRLLIKYASQSISGIPSRFSGSGSGTDFTLSINSVETEDSGMYFCQQSNSWPLTFGAGTKLELK
notes: also called chimeric antibody of hybridoma clone m009
B7: ch-011 (antibody, human IgG1, V domains shown)
VH: EVQLVESGGGLVKPGGSLKLSCAASGFTFSDYGMHWVRQAPEKGLEWVAFISSGSSSIYYADTVKGRFTISRDNAKNTLFLQMTSLRSEDTAMYSCARNYVSSYGYFDYWGQGTTLTVSS
VL: DIVMTQSPASLAVSLGQRATISCRASENVDNYGISFMHWYQQKPGQPPKLLIYRASNLESGIPARFSGSGSRTDFTLTINPVETDDVATYYCQQSNKDPLTFGSGTKLEIK
notes: also called chimeric antibody of hybridoma clone m011
B8: h011-06 (antibody, human IgG1, kappa, V domains shown)
VH: B7 VH with K13Q, K19R, E42G, N77S, T78S, S88A, M93V, L116V
VL: B4 VL with L4M, A9D, S28N, V62I, A64D, V89T, T95S
B9: ch-160 (antibody, human IgG1, V domains shown)
VH: B7 VH with A23V, V48I, S53T, S57N, A61V, T63K, S95Y
VL: B7 VL with M4L, I21V, N28S, S95T, S104G, I110L
notes: also called chimeric antibody of hybridoma clone m160

Biological target: T1, Fusion protein of CD38 extracellular domain with His tag: CD38-ECD-His (human, UniProt P28907 43-300)
T1 construct: unlabelled analyte in Biacore; also called human CD38-ECD-His; Human CD38-His
Test: ELISA, biotin-labeled CD38-ECD-His on streptavidin-coated plate
Method: The affinity of the anti-CD38 antibodies were determined by the amount of the antibodies binding to CD38 immobilized on the ELISA plate. […] The plate was washed again and tetramethyl benzidine solution was added for color reaction. Finally, stop solution was added. OD450 was measured on a microplate reader and EC50 value was calculated.

B1 and B2 are within 1.5-fold of each other in EC50: 0.0259 µg/mL for the first, 0.0276 µg/mL for the second.

Binder B3 has an EC50 of 0.028 µg/mL.

Biological target: T2, full-length human CD38 on CHO-S cells (CD38-FL-CHOS) (human, UniProt P28907 1-300)
T2 construct: whole, on cells; also called natural CD38 present on the cell surface
Test: flow cytometry on CD38-FL-CHO-S cells

B1 and B2 are within 1.5-fold of each other in EC50: 0.402 µg/mL for the first, 0.481 µg/mL for the second.

Work on B3 yielded an EC50 of 0.474 µg/mL.

Biological target: T1, Fusion protein of CD38 extracellular …
Test: SPR (Biacore), antibody captured as ligand, Human CD38-His as analyte
Method: (§1) Then the human CD38-ECD-His antigen passed through the surface of the chip, and a real-time detection for the reaction signal was performed with Biacore instrument. The resulting binding and dissociation curves were fitted to calculate the affinity values. After the dissociation of each cycle was completed in the experiment, the biochip was washed and regenerated with the regeneration solution supplied in the Human Fc Capture Kit (GE).

Going from B1 to B2, the Kd falls from 1.31 nM to 0.568 nM (2.3-fold). The second binds more tightly here.

Work on B3 yielded a Kd of 0.0585 nM.

B1 and B2 are within 1.5-fold of each other in koff: 0.00138 s⁻¹ for the first, 0.00117 s⁻¹ for the second.

With B3 the koff was 0.000115 s⁻¹.

First: B1
Second: B2
The kon of the first is 2-fold lower: 1.05e+06 M⁻¹ s⁻¹ for the first, 2.07e+06 M⁻¹ s⁻¹ for the second.

Binder B3 has a kon of 1.96e+06 M⁻¹ s⁻¹.

Biological target: T1, Fusion protein of CD38 extracellular …
Test: SPR (Biacore), antibody captured by anti-human Fc, CD38-ECD-His as analyte;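 further: human CD38-ECD-His flowed over the captured antibody with the signal tracked in real time, and association and dissociation curves were fitted to derive the affinity values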
Method: as §1

B4 and B5 are within 1.5-fold of each other in Kd: 0.0748 nM for the first, 0.0782 nM for the second.

B6 and B7 are within 1.5-fold of each other in Kd: 0.234 nM for the first, 0.199 nM for the second.

Compared with B8, B9 is 4.8-fold lower in Kd: 0.3 nM for the first, 0.062 nM for the second. The second binds more tightly here.

B4 and B5 are within 1.5-fold of each other in koff: 0.000182 s⁻¹ for the first, 0.000179 s⁻¹ for the second.

Going from B6 to B7, the koff rises from 0.000477 s⁻¹ to 0.00148 s⁻¹ (3.1-fold).

Compared with B8, B9 is 12-fold lower in koff: 0.00201 s⁻¹ for the first, 0.00017 s⁻¹ for the second.

B4 and B5 are within 1.5-fold of each other in kon: 2.43e+06 M⁻¹ s⁻¹ for the first, 2.29e+06 M⁻¹ s⁻¹ for the second.

Compared with B6, B7 is 3.7-fold higher in kon: 2.04e+06 M⁻¹ s⁻¹ for the first, 7.46e+06 M⁻¹ s⁻¹ for the second.

Going from B8 to B9, the kon falls from 6.71e+06 M⁻¹ s⁻¹ to 2.74e+06 M⁻¹ s⁻¹ (2.4-fold).

Biological target: T1, Fusion protein of CD38 extracellular …
Test: cell-based or functional assay

B1 and B2 are within 1.5-fold of each other in “IC50 (µg/ml), inhibition of CD38 enzyme activity (cGDPR production from NGD)” value: 1.56 µg/mL for the first, 1.83 µg/mL for the second.

With B3 the “IC50 (µg/ml), inhibition of CD38 enzyme activity (cGDPR production from NGD)” value was 1.2 µg/mL.

Going from B1 to B2, the “Imax (Maximum inhibition rate %)” value falls from 89.6% to 44.3%.

With B3 the “Imax (Maximum inhibition rate %)” value was 47.7%.
